For one molecule, Fold diff results are on record in patent US20220332804A1 (CSL INNOVATION, published 2022).

Residue numbers refer to the chain shown, from its start.

What all share (assay): SPR, KD relative to WT C2;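 also: biacore SPR at 37 °C, anti-C2 mAbs captured on anti-human IgG chips with alanine or serine point mutants of C2 as analyte, KD from 1:1 fit compared with wild-type C2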
The target of one assay is T1, human C2 D441A (human, UniProt P06681 21-752).
T1 sequence: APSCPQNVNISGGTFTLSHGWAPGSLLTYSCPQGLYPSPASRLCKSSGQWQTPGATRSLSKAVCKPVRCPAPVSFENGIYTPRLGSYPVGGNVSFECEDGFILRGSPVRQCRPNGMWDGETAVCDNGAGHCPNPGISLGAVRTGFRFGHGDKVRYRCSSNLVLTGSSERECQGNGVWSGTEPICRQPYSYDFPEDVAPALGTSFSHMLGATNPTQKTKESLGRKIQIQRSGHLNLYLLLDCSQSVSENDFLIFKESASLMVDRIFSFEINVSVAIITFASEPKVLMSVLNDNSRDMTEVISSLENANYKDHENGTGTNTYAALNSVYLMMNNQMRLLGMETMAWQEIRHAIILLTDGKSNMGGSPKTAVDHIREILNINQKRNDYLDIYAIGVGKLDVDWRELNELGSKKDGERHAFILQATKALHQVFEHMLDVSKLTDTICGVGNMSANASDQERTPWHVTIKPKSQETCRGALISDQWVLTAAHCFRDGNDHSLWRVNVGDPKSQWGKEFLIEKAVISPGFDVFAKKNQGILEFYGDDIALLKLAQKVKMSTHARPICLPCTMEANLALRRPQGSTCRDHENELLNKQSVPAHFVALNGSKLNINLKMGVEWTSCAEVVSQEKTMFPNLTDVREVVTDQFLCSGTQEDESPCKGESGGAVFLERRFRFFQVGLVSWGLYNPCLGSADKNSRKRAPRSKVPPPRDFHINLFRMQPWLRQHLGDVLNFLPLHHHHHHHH

Another assay has as its target T2, human C2 D417A (human, UniProt P06681 21-752).
T2 sequence: T1 sequence with D397A, A421D

In a further assay the target is T3, human C2 E324A (human, UniProt P06681 21-752).
T3 sequence: T1 sequence with E304A, A421D

Another assay addresses T4, human C2 S456A (human, UniProt P06681 21-752).
T4 sequence: T1 sequence with A421D, S436A

B1: RF16-242 (antibody, human IgG4 S228P, lambda, V domains shown)
VH: EVQLLQSGAEVKKPGESLKISCKGSGYSFTSYWIGWVRQMPGKGLEWMGIIYPGDSDTRYSPSFQGQVTISADKSISTAYLQWSSLKASDTAMYYCARRGHYGDYFDYWGQGTLVTVSS
VL: SYELTQPPSVSVSPGQTARITCSGDALPKKYAYWYHQKSGQAPVLVIYEDRRRPSEIPERFSGSSSGTMATLTITGAQVEDEGVYFCYSRDRAGNQRVFGGGTQLTVLG
notes: pH-dependent anti-C2 antibody from a phage display library
Take B1: the Fold diff turned out to be 16 fold in the assay with human C2 D441A, 3 fold with human C2 D417A, 2 fold with human C2 E324A and 9 fold with human C2 S456A.
